Measurements from patent US8975259B2, “Compositions and methods for inhibiting G protein signaling” (University of Rochester, priority 2007, dated 2015).
pIC50: −log10 of the molar value. Read-outs that look alike come from different tables or passages of the source. Values belong to the compound of their own block, whether it stands above or below them.

Experiments:
Gβ1γ2 = Gβ1γ2 (UniProt P54311+P63212); assay: Competition phage ELISA: inhibition of SIGK-phage binding to immobilized biotinylated Gβ1γ2; set-up: made in house; host or cells: Sf9 insect cells (baculovirus; co-expressed with BirA and (His)6-Gαi1, from which βγ was eluted); species or system rat
Description: Phage ELISA assays used to assess peptide binding to wild-type and mutant b-βγ were performed according to standard methods (Smrcka and Scott (2002) Methods Enzymol. 344:557-76). Briefly, 1 μg streptavidin was immobilized in the well of a […] overnight at 4° C. The wells were blocked with 100 μL of 2% bovine serum albumin (BSA) in Tris-buffered saline (TBS) for 1 hour at 4° C. followed by three washes of IX TBS/0.5% TWEEN®. […] The wells were washed, followed by the addition of IxIO^6 to IxIO^10 phage particles and incubated at 4° C. for 3 hours. The wells were then washed six times with TBS/0.5% TWEEN® followed by addition of 40 μL of 1:5000 dilution of anti-M13 antibody (Pharmacia, Uppsala, Sweden) and incubated at room temperature for 1 hour. The wells were washed, followed by the addition of 40 μL of (2,2′-Azino-bis (3-ethylbenzthiazoline)-6-sulfonic acid (ABTS) and the colorimetric reaction was monitored at 405 nm. Nonspecific binding was subtracted for each reading.
A phage ELISA assay was used to determine whether small molecules identified in the computational screen could interact with the Gβy protein interaction surface. […] The screen was based on a reduction in the optical density (OD) of wells containing Gβγ subunits and phage. […] Three background wells contained no βy subunits.
As disclosed herein, biotinylated Gβy subunits were immobilized on the surface of a 96-well plate coated with streptavidin, phage displaying Gβγ-binding peptides were subsequently added and binding in the presence and absence of test compounds detected with an anti-phage antibody.
The phage ELISA assay was used to rapidly screen the ability of compounds to bind to the protein interaction “hot spot” based on the method of Scott et. al (Scott et al., 2001). This assay is performed in the presence of detergent (0.5% Tween) to eliminate non-specific compound aggregation artifacts.
Compounds/DMSO and 0.1×10^10 phage were added simultaneously and subsequently incubated for 1 h at room temperature. Plates were then washed with 1× Tris-buffered saline/0.5% Tween 20 and incubated with anti-M13, HRP-conjugated antibody (Amersham, Chalfont St. Giles, Buckinghamshire, UK). Phage binding was determined by monitoring A405 upon addition of 2,2′-azino-bis(3-ethylbenzothiazoline-6-sulfonic acid) (Sigma Aldrich).

Gβ1γ2 (Gβ1 mutants) [1] = molecular target: T1, Gβ1γ2 (Gβ1 mutants) (UniProt P54311+P63212, M188A); assay: Phage ELISA: binding of peptide-displaying phage to wild-type or alanine-substituted b-βγ; set-up: species or system rat; conditions: Gβ1 Met188Ala; mean ± SD
T1 construct: made in house; host or cells: Sf9 insect cells (baculovirus), partially purified via (His)6-Gαi1 on Ni-NTA
Text: (§1) Wild-type Gβ1 and Gp1 mutants were made in the baculovirus vector PDW464 which encodes a biotinylation site at a lysine upstream of the amino terminus of Gβ1 (Goubaeva, et al. (2003) supra). Mutants were generated by overlap extension PCR using standard protocols. The wild-type and mutant Gβ1 constructs consisted of a 20 amino acid biotin acceptor peptide (BAP) sequence fused in-frame with the amino-terminus of rat Gβ1 subunit. When coexpressed with biotin holoenzyme synthetase (BirA) in Sf9 cells, the Gβ1 subunit becomes covalently biotinylated in vivo at the specific lysine acceptor residue in the BAP. Using this approach, 1-2 mg protein of purified protein can be obtained per liter of Sf9 insect cells. As 45 ng of protein is used in the phage ELISA assay, a single purification is sufficient for 10,000 to 30,000 binding assays.
(§2) Phage ELISA assays used to assess peptide binding to wild-type and mutant b-βγ were performed according to standard methods (Smrcka and Scott (2002) Methods Enzymol. 344:557-76). Briefly, 1 μg streptavidin was immobilized in the well of a […] overnight at 4° C. The wells were blocked with 100 μL of 2% bovine serum albumin (BSA) in Tris-buffered saline (TBS) for 1 hour at 4° C. followed by three washes of IX TBS/0.5% TWEEN®. Forty μL of 25 nM bGβ1γ2 in TBS/0.5% TWEEN® was added to each well and incubated at 4° C. for 1.5 hour. The wells were washed, followed by the addition of IxIO^6 to IxIO^10 phage particles and incubated at 4° C. for 3 hours. The wells were then washed six times with TBS/0.5% TWEEN® followed by addition of 40 μL of 1:5000 dilution of anti-M13 antibody (Pharmacia, Uppsala, Sweden) and incubated at room temperature for 1 hour. The wells were washed, followed by the addition of 40 μL of (2,2′-Azino-bis (3-ethylbenzthiazoline)-6-sulfonic acid (ABTS) and the colorimetric reaction was monitored at 405 nm. Nonspecific binding was subtracted for each reading.
(§3) The nine peptides were selected to represent the different consensus groups of peptides previously identified (See Scott et al. (2001) supra; Table 15) and to compare binding characteristics within and between consensus groups. […] As disclosed herein, the binding signal obtained in the ELISA assay was correlated to a loss in affinity by comparing the results to behavior of the peptide in a solution based assay. […] For the purposes of present disclosure, any substitution that decreased the binding to less than 20% of the wild-type binding was considered to be a critical binding contact for that peptide.

Gβ1γ2 (Gβ1 mutants) [2] = molecular target: T2, Gβ1γ2 (Gβ1 mutants) (UniProt P54311+P63212, H311A); assay: as above; set-up: species or system rat; conditions: Gβ1 His311Ala; mean ± SD
T2 construct: made in house; host or cells: Sf9 insect cells (baculovirus), partially purified via (His)6-Gαi1 on Ni-NTA
Text: as §1, §2, §3

Gβ1γ2 (Gβ1 mutants) [3] = molecular target: T3, Gβ1γ2 (Gβ1 mutants) (UniProt P54311+P63212, L117A); assay: as above; set-up: species or system rat; conditions: Gβ1 Leu117Ala; mean ± SD
T3 construct: made in house; host or cells: Sf9 insect cells (baculovirus), partially purified via (His)6-Gαi1 on Ni-NTA
Text: as §1, §2, §3

Gβ1γ2 (Gβ1 mutants) [4] = molecular target: T4, Gβ1γ2 (Gβ1 mutants) (UniProt P54311+P63212, K57A); assay: as above; set-up: species or system rat; conditions: Gβ1 Lys57Ala; mean ± SD
T4 construct: made in house; host or cells: Sf9 insect cells (baculovirus), partially purified via (His)6-Gαi1 on Ni-NTA
Text: as §1, §2, §3

Gβ1γ2 (Gβ1 mutants) [5] = molecular target: T5, Gβ1γ2 (Gβ1 mutants) (UniProt P54311+P63212, N230A); assay: as above; set-up: species or system rat; conditions: Gβ1 Asn230Ala; mean ± SD
T5 construct: made in house; host or cells: Sf9 insect cells (baculovirus), partially purified via (His)6-Gαi1 on Ni-NTA
Text: as §1, §2, §3

Gβ1γ2 (Gβ1 mutants) [6] = molecular target: T6, Gβ1γ2 (Gβ1 mutants) (UniProt P54311+P63212, Y59A); assay: as above; set-up: species or system rat; conditions: Gβ1 Tyr59Ala; mean ± SD
T6 construct: made in house; host or cells: Sf9 insect cells (baculovirus), partially purified via (His)6-Gαi1 on Ni-NTA
Text: as §1, §2, §3

Gβ1γ2 (Gβ1 mutants) [7] = molecular target: T7, Gβ1γ2 (Gβ1 mutants) (UniProt P54311+P63212, Y145A); assay: as above; set-up: species or system rat; conditions: Gβ1 Tyr145Ala; mean ± SD
T7 construct: made in house; host or cells: Sf9 insect cells (baculovirus), partially purified via (His)6-Gαi1 on Ni-NTA
Text: as §1, §2, §3

Gβ1γ2 (Gβ1 mutants) [8] = molecular target: T8, Gβ1γ2 (Gβ1 mutants) (UniProt P54311+P63212, W99A); assay: as above; set-up: species or system rat; conditions: Gβ1 Trp99Ala; mean ± SD
T8 construct: made in house; host or cells: Sf9 insect cells (baculovirus), partially purified via (His)6-Gαi1 on Ni-NTA
Text: as §1, §2, §3

Gβ1γ2 (Gβ1 mutants) [9] = molecular target: T9, Gβ1γ2 (Gβ1 mutants) (UniProt P54311+P63212, M101A); assay: as above; set-up: species or system rat; conditions: Gβ1 Met101Ala; mean ± SD
T9 construct: made in house; host or cells: Sf9 insect cells (baculovirus), partially purified via (His)6-Gαi1 on Ni-NTA
Text: as §1, §2, §3

Gβ1γ2 (Gβ1 mutants) [10] = molecular target: T10, Gβ1γ2 (Gβ1 mutants) (UniProt P54311+P63212, W332A); assay: as above; set-up: species or system rat; conditions: Gβ1 Trp332Ala; mean ± SD
T10 construct: made in house; host or cells: Sf9 insect cells (baculovirus), partially purified via (His)6-Gαi1 on Ni-NTA
Text: as §1, §2, §3

Gβ1γ2 (Gβ1 mutants) [11] = molecular target: T11, Gβ1γ2 (Gβ1 mutants) (UniProt P54311+P63212, D186A); assay: as above; set-up: species or system rat; conditions: Gβ1 Asp186Ala; mean ± SD
T11 construct: made in house; host or cells: Sf9 insect cells (baculovirus), partially purified via (His)6-Gαi1 on Ni-NTA
Text: as §1, §2, §3

Gβ1γ2 (Gβ1 mutants) [12] = molecular target: T12, Gβ1γ2 (Gβ1 mutants) (UniProt P54311+P63212, D246S); assay: as above; set-up: species or system rat; conditions: Gβ1 Asp246Ser; mean ± SD
T12 construct: made in house; host or cells: Sf9 insect cells (baculovirus), partially purified via (His)6-Gαi1 on Ni-NTA
Text: as §1, §2, §3

Gβ1γ2 (Gβ1 mutants) [13] = molecular target: T13, Gβ1γ2 (Gβ1 mutants) (UniProt P54311+P63212, R314A); assay: as above; set-up: species or system rat; conditions: Gβ1 Arg314Ala; mean ± SD
T13 construct: made in house; host or cells: Sf9 insect cells (baculovirus), partially purified via (His)6-Gαi1 on Ni-NTA
Text: as §1, §2, §3

Compound: Nc1ccc(Nc2cc(S(=O)(=O)O)c(N)c3c2C(=O)c2ccccc2C3=O)cc1 [drawing 51]
- pIC50 (Gβ1γ2; Table 2, read-out: Elisa IC50): 4.92

Compound: Nc1cccc(Nc2cc(S(=O)(=O)O)c(N)c3c2C(=O)c2ccccc2C3=O)c1 [drawing 52]
- pIC50 (Gβ1γ2; Table 2, read-out: Elisa IC50): 4.72

Compound: Nc1ccc(-c2ccc(Nc3cc(S(=O)(=O)O)c(N)c4c3C(=O)c3ccccc3C4=O)cc2)c(S(=O)(=O)O)c1 [drawing 54]
- pIC50 (Gβ1γ2; Table 2, read-out: Elisa IC50): 4.74

Compound: O=C(O)C1CCCCC1c1c2ccc(=O)c(O)c-2oc2c(O)c(O)ccc12 (stereo not shown) [drawing 103]
- pIC50 (Gβ1γ2; SIGK IC50, Table 6): 6.70

Compound: O=C(O)c1cccc2cccc(-c3c4ccc(=O)c(O)c-4oc4c(O)c(O)ccc34)c12 [drawing 108]
- pIC50 (Gβ1γ2; Table 6): 6.82

Second part, the compound after the results:

- % of Wild-Type Signal (Gβ1γ2 (Gβ1 mutants) [1]): 8.5 ± 5.2%
- % of Wild-Type Signal (Gβ1γ2 (Gβ1 mutants) [2]): 23.6 ± 46.0%
- % of Wild-Type Signal (Gβ1γ2 (Gβ1 mutants) [3]): 2.1 ± 5.5%
- % of Wild-Type Signal (Gβ1γ2 (Gβ1 mutants) [4]): −4.5 ± 6.2%
- % of Wild-Type Signal (Gβ1γ2 (Gβ1 mutants) [5]): 27.6 ± 19.1%
- % of Wild-Type Signal (Gβ1γ2 (Gβ1 mutants) [6]): −2.0 ± 9.5%
- % of Wild-Type Signal (Gβ1γ2 (Gβ1 mutants) [7]): 0.1 ± 6.5%
- % of Wild-Type Signal (Gβ1γ2 (Gβ1 mutants) [8]): 32.6 ± 26.3%
- % of Wild-Type Signal (Gβ1γ2 (Gβ1 mutants) [9]): 6.0 ± 5.1%
- % of Wild-Type Signal (Gβ1γ2 (Gβ1 mutants) [10]): −1.5 ± 3.6%
- % of Wild-Type Signal (Gβ1γ2 (Gβ1 mutants) [11]): 2.4 ± 3.5%
- % of Wild-Type Signal (Gβ1γ2 (Gβ1 mutants) [12]): 0.6 ± 2.5%
- % of Wild-Type Signal (Gβ1γ2 (Gβ1 mutants) [13]): 2.4 ± 3.9%
Compound: LCSKAYLLLGQTC [Compound 2F]

- % of Wild-Type Signal (Gβ1γ2 (Gβ1 mutants) [1]): 122.6 ± 26.2%
- % of Wild-Type Signal (Gβ1γ2 (Gβ1 mutants) [2]): 51.6 ± 13.2%
- % of Wild-Type Signal (Gβ1γ2 (Gβ1 mutants) [3]): 24.7 ± 12.5%
- % of Wild-Type Signal (Gβ1γ2 (Gβ1 mutants) [4]): 14.2 ± 9.8%
- % of Wild-Type Signal (Gβ1γ2 (Gβ1 mutants) [5]): 74.8 ± 14.8%
- % of Wild-Type Signal (Gβ1γ2 (Gβ1 mutants) [6]): 4.0 ± 6.2%
- % of Wild-Type Signal (Gβ1γ2 (Gβ1 mutants) [7]): 17.5 ± 7.8%
- % of Wild-Type Signal (Gβ1γ2 (Gβ1 mutants) [8]): −0.8 ± 2.7%
- % of Wild-Type Signal (Gβ1γ2 (Gβ1 mutants) [9]): 23.6 ± 8.5%
- % of Wild-Type Signal (Gβ1γ2 (Gβ1 mutants) [10]): 0.7 ± 2.4%
- % of Wild-Type Signal (Gβ1γ2 (Gβ1 mutants) [11]): 124.9 ± 29.1%
- % of Wild-Type Signal (Gβ1γ2 (Gβ1 mutants) [12]): 60.8 ± 14.4%
- % of Wild-Type Signal (Gβ1γ2 (Gβ1 mutants) [13]): 20.8 ± 11.1%
Compound: SCARFFGTPGCT [Compound C8]
